Measurements: publication PMC10907714

Target: human EGFR-WT (human) (UniProt P00533)

potency of hEpiregulin against hEGF for recruitment of the seven SH2 biosensors to the plasma membrane (ebBRET, Fig. 2a), HEK293 cells with EGFR-WT, 10 min (fold less potent than hEGF): > 100
Substance: human recombinant Epiregulin (from UniProt O14944 63-108) (ligand)
